Test results reported in article PMC9253517 (The Journal of Experimental Medicine, 2022).

B1: JR068 (antibody, V domains shown)
VH: QVQLQESGPGLVKPSQTLSLTCTVFGGSIRSGDYYWSWIRQPPGKGLEWMGYIYSSGSAYYNPSLESRVTISIDASKNQFSLKVNSVTAADTAVYYCARDGFWFGFGSFDIWGLGTMVTVSS
VL: EIVMTQSPATLSVSPGERAALSCRASQSVSSNLAWYQQRVGQAPRLLIYGASTRATGIPARFSGSGSGTEFTLTISSLQSEDFAVYYCQQYNNWPPLTFGGGTKVEIK
B2: JR060 (antibody, V domains shown)
VH: QVQLVQSGAEVKKPGASVRVSCKASGYTFNNYGIIWVRQAPGQGLEWVGWISAYNANTNYAQKLQGRVSMTTDTPTSTVYMELRSLRSDDTAVYYCASGLGAAGTEPPSDYWGQGTLVTVSS
VL: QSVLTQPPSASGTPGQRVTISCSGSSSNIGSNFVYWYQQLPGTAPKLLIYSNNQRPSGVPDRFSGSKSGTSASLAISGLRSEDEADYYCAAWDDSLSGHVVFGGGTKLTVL
B3: JR069 (antibody, V domains shown)
VH: EVQLVESGGGLVQPGGSLRLSCAASGFSFSNYDMLWLRQITGRGLEWVSLIGTSGDTYYSDSVKGRFTISRENGKNSLYLQMNRLRAGDTAVYYCARGNFDTSGFYSYFDTWGQGTLVTVSS
VL: DIQLTQSPSYLSASVGDRVTITCRASQTIKNYLNWYQQKPGKAPKLLIYAVSTLQNGVSSRFRGSGSGTDFTLTISSLQPEDFATYYCQQSYTIPPYTFGQGTKLEIK
B4: JN104 (antibody, V domains shown)
VH: QVQLQESGPGLVKPSGTLSLTCAVSGGSISSNKWWSWVRQPPGKGLEWIGEIYHSGSTNYNPSLKSRVTISVDKSKNQFSLKLSSVTAADTAVYYCAILRYGSGSSLPPDNWGQGTLVTVSS
VL: EIVMTQSPATLSVSPGERATLSCRASQIISNNLAWHQQKPGQAPRLLIYGASTRATGIPARFSGSGSGTEFTLTISSLQSEDFAVYYCQQYNNWPPLLTFGGGTKVEIK
B5: JN117 (antibody, V domains shown)
VH: QVQLVQSGAEVKKPGASVKVSCKASGYTFTSYDINWVRQATGQGLEWMGWMNPNSGNTGYAQKFQGRVTMTRNTSISTAYMELSSLRSEDTAVYYCALGTTPWYYFDYWGQGTLVTVSS
VL: SYELTQPPSVSVSPGQTARITCSGDALPKQYAYWYQQKPGQAPVLVIYKDSERPSGIPERFSGSSSGTTVTLTISGVQAEDEADYYCQSADSSGTYVFGTGTKVTVL
B6: JN115 (antibody, V domains shown)
VH: QVQLVQSGAEVRKPGASVKVSCKVSGYTLIDLSIHWVRQAPGKGLEWMGGFDPEDGETIYAQKFQGRVTMTEDTSTDTAYMELSSLRSEDTAVYYCATSSSIVISGWFDPWGQGTLVTVSS
VL: QSALTQPASVSGSPGQSITISCTGTSSDVSGYNYVSWYQQHPGKVPKLLIYDVSNRPSGVSNRFSGSKSGNTASLTISGLQAEDEADYYCSSYTSSSTLVYVFGTGTKVTVL
B7: JR077 (antibody, V domains shown)
VH: EVQLVESGGGLVQPGGSLRLSCAASGFTFSDYDMHWVRQVTGKGLEWVSAVGTRGDTYYAASVKGRFTISRENAKNSLYLQMNSLRAGDTAVYYCARVGYDSTGFYYYFDYWGQGTLVTVSS
VL: DIQLTQSPSSLSASVGDRVTITCRASQRIGRFLNWYQQKPGKAPKLLIYIVSSLQSGVPSRFSGSGSGTDFTLTINSLQPEDFATYYCQQTYNMPPITFGQGTRLEIK
B8: JR204 (antibody, V domains shown)
VH: QVQLQESDPGLVTPSETLSLTCTVSGASVSSGSDYWNWIRQPPGKGLEWIGYIYYTGRTNYNPSLKSRVTISVDTSKNQFSLKLSSVTAADTAVYYCAREVIVLPAALPPFGLDVWGQGTTVTVSS
VL: SYELTQPPSVSVAPGKTARITCGGNNIGTKSVHWYQQKPGQAPVLVVYDDSDRPSGIPERFSGSNSENTATLTISRVEAGDEADYSCQVWDSSGDHVVFGGGTKLTVL
B9: JR195 (antibody, V domains shown)
VH: EVQLVESGGGLVQPGRSLRLSCAASGFTFDDYTMHWVRQAPGKGLEWVSAISWNSDALGYADSVKGRFTISRDNAKNSLYLQMNSLRPEDTALYYCAKDIDFGGSGSFDVFHIWGHGTMVTVS
VL: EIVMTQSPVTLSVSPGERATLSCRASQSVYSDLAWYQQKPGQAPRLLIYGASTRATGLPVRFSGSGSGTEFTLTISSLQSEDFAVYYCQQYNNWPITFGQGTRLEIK
B10: JN103 (antibody, V domains shown)
VH: EVQLVKSGGGLIQPGGSLRLSCAASGFTVSSNYMSWVRQAPGKGLEWVSVIYSGGSTYYADSVKGRFTISRDNSKNTLYLQMNSLRAEDTAVYYCARDLYSSGGTDIWGQGTMVTVSS
VL: QTVVTQEPSFSVSPGGTVTLTCGLTSGSVSTSHYPSWYQQTPGQAPRTLIDSTNIRSFGVPDRFSGSILGNKAALTITGAQADDEADYYCILYVGNGIWMFGGGTRLTVL
B11: JN007 (antibody, V domains shown)
VH: EVQLVESGGGLIQPGGSLRLSCAASGFTVSSNYMSWVRQAPGKGLEWVSVIYTGGSTYYADSVKGRFTISRDNSNNSLYLRMNSLRAEDTAVYYCARGPYYDFRSGYSPGWFDPWGQGTLVTVSS
VL: not shown
B12: JR154 (antibody, V domains shown)
VH: EVQLVESGGGLVQPGRSLRLSCEASGFIFDDYAMHWVRQGPGKGLEWVSGITSNSGSMGYADSVKGRFTISRDNAKNSLYLQMNSLRPEDTAFYYCAKDMVSGVFLWFGELENWGQGTLVTVS
VL: QSVLTQPPSASGTPGQRVTISCYGSRSNFGTNTVNWYQQLPGMAPRLLIHSHNQRPSGVPARFSGSKSGTSASLAISGLQSEDEAHYYCASWDGGLNAVVFGGGTKLIVL
B13: JR072 (antibody, V domains shown)
VH: VQLVESGGGVVQPGRSLRLSCAASGFTFSTYGMHWVRQAPGKGLEWVAGISYDGSDKYYGDSVRGRFTVSRDNSKNTLYLQMNSLRAEDTAVYYCAKGQGPYCSAGNCYTHYFDYWGQGTLVTVSS
VL: EIVLTQSPATLSLSPGERATLSCRASQSVGNYLAWYQQKPGQAPRLLIDDASNRAAGTPARFSGSGSGTDFTLTISSLEPEDFAVYYCQQRSNWPPITFGQGTRLEIK
B14: JR065 (antibody, V domains shown)
VH: VQLVESGGGVAQPGRSLRLSCAASGFTFSHYGMHWVRQGPGKGLEWVAGISFDGSDKYYADSVKGRFTISRDNSKNTFYLQMNSLRTDDTAVFYCAKQGFGYGSGWYYFDYWGQGTLVTVSS
VL: IRMTQSPSSLSASVGDRVTITCQASQDISKYLNWYQQRPGKAPKPLIYDASNLETGVPSRFSGSGSGTDFTLTITNLQPEDIATYYCQQYDNVPSVTFGQGTRLEIK
B15: JR053 (antibody, V domains shown)
VH: QVQLVQSGAEVKKPGASVKVSCKASGYTFTSHYMHWVRQAPGQGLEWMGIINPSGGSTSHAQKFQGRVTLTSDTSTSTVYMELSSLRSEDTAVYYCARDLSFIPSIAWNCGYWGQGTLVTVSS
VL: QSALTQPASVSGSPGQSITISCTGTSSDVGGYNYVSWYQQHPGKAPKLMIYDVSDRPSGVSNRFSGSKSGNTASLTISGLQAEDEADYYCSSYTSSSSYVFGTGTKVTVL
B16: JR150 (antibody, V domains shown)
VH: QVQLVQSGAEVKKPGASVKVSCKASRYTFASYYMHWVRQAPGQGLEWMGIINPGGGSTSYAQNFQGRVSMTSDTSTSTVYMELRSLRSEDTAVYYCARDSEFVPTAHGAFEIWGQGTMVTVSS
VL: EIVLTQSPATLSLSPGERATLSCRASQSVSSYLAWYQQKPGQAPRLLIYDASNRATGIPARFSGSGSGTDFTLTISSLEPEDFAVYYCQQRSNWLVTFGGGTKVEIK
B17: JR078 (antibody, V domains shown)
VH: VQLVESGGGVVQPGRSLRLSCAASGFIFRSYGMNWVRQAPGKGLEWVAVMSYDGNDKDYADSVKGRFTISRDDSKNTLYLQMNSLRAEDTAVYYCAKSGGLYCSGGNCYSNYFDYWGRGTLVTVSS
VL: EIVLTQSPGTLSLSPGERATLSCRASQSVSSSYLAWYQQKPGQAPRLLISGASSRAAGIPDRFSGSGSGTDFTLTISRLAPEDFAVYYCQQYGYSLTFGGGTKVEIK
B18: JR325 (antibody, V domains shown)
VH: QVQLQESGPGLVKPSQTLSLTCTVSGGSISSSDYYWSWIRQHPGKGLEWIGFIFYSGTTYYSPALKSRVSISVDTSKSQFSLKLHSVTAADTAVYYCARFSRNLGLNWFDPWGQGTLVTVSS
VL: QFVLTQPASVSGSPGQSITISCTGTSSDIGSYDLVSWYQQYPGKAPKLIIYEVNKRPSGVSSRFSGSKSGNTASLTISGLLAEDEADYYCCSYAGPNTVLFGGGTILTV
B19: JN109 (antibody, V domains shown)
VH: QVQLVESGGGVVQPGRSLRLSCAASGFTFSSYGMHWVRQAPGKGLEWVAVIWYDGSNKYYADSVKGRFTISRDNSKNTLYLQMNSLRAEDTAVYYCARVRTIFRPLDYMDVWGKGTTVTVSS
VL: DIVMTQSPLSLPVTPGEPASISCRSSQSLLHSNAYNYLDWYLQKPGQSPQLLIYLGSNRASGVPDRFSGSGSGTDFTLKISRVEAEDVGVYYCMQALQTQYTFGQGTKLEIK
B20: JN110 (antibody, V domains shown)
VH: QVQLVQSGAEVKKPGSSVKVSCKASGGTFSSYAISWVRQAPGQGLEWMGGIIPIFGTANYAQKFQGRVTITADKSTSTAYMELSSLRSEDTAVYYCARDPAFYYDILTGYGGYYYYGMDVWGQGTTVTVSS
VL: DIVMTQTPLSLSVTPGQPASISCKSSQSLLHSDGKTYLYWYLQKPGQPPQLLIYEVSNRFSGVPDRFSGSGSGTDFTLKISRVEAEDVGVYYCMQSIQLPPTFGQGTKVEIK
B21: JR340 (antibody, V domains shown)
VH: EVQLVESGGGLVQPGRSLRLSCTASGFTFHDYALQWVRQVPGKGLEWVSGISWNSASTGYADSVKGRFTISRDNAKNSLYLQMNSLRAEDTALYYCAKVRSTSCYLACGMDVWGQGTTVTVSS
VL: QSALTQPASVSGSPGQSITISCTGTSSDVGSYNLVSWYQQHPGKAPKLMISEVSKRPSGVSNRFSGSKSGNTASLTISGLQAEDEADYYCCSYALSRILFGGGTKLTVL

How the values were obtained:
[1] = biological target: T1, SARS-CoV-2 Wuhan-Hu-1 RBD (SARS-CoV-2, Wuhan-Hu-1 (GenBank …, UniProt P0DTC2)); assay: BLI; details: both partners purified
[2] = biological target: T1, SARS-CoV-2 Wuhan-Hu-1 RBD; assay: cell-based or functional assay
[3] = biological target: SARS-CoV-2 Wuhan-Hu-1 NTD (SARS-CoV-2, UniProt P0DTC2 14-307); assay: cell-based or functional assay

Binder | binding result [1] | neutralisation IC50, Wuhan-Hu-1 pseudovirus [2] [µg/mL] | neutralisation IC50, WT (293TAce2) [3] [µg/mL]
B1 | binds | > 1 | –
B2 | binds | > 1 | –
B3 | binds | > 1 | –
B4 | – | – | > 1
B5 | – | – | > 1
B6 | – | – | > 1
B7 | binds | > 1 | –
B8 | binds | > 1 | –
B9 | binds | > 1 | –
B10 | – | – | > 1
B11 | – | – | > 1
B12 | binds | > 1 | –
B13 | binds | > 1 | –
B14 | binds | > 1 | –
B15 | binds | > 1 | –
B16 | binds | > 1 | –
B17 | binds | > 1 | –
B18 | binds | > 1 | –
B19 | – | – | > 1
B20 | – | – | > 1
B21 | binds | > 1 | –
